Data as given in a protein production outcome set (Wang et al. 2014).

Assay: label from the status in PepcDB records

Row | Sequence | protein production
1 | MPKSCSASNCTNRYNNKNPEITFHRFPFSKPSVLKQWLDNIGRDDFQPRKHMVICSLHFTPDCFSGLGNRKNLLWNAVPTLFAVPTQDANQNNFRKRLKRALQSASEKWDGITPDGLPLFTEEMHEDTQDCNNNEVADCQSTKVFAAADHTYALSDACTTKARLFNILDANRWLRKRLQAKCRVIKRMKLKLKDAQRELLTLRQQIRHRHVNH | failed
2 | MPKTLIILAHPNISQSTVHKHWSDAVRQHTDRFTVHELYAVYPQGKIDVAAEQKLIETHDSLVWQFPIYWFNCPPLLKQWLDEVLTYGWAYGSKGKALKGRKIALAVSLGAPAADYRADGAVGCSVAEVLRPFELTAKYCNADYRPPFTFHTIDSNAGYSEAARQEVERSARDYLAWLDALEHHHHHH | not failed
3 | MPKTLIILAHPNISQSTVHKHWSDAVRQHTDRFTVHELYAVYPQGKIDVAAEQKLIETHDSLVWQFPIYWFNCPPLLKQWLDEVLTYGWAYGSKGKALKGRKIALAVSLGAPAADYRADGAVGCSVAEVLRPFELTAKYCNADYRPPFTFHTIDSNAGYSEAARQEVERSARDYLAWLDALQQTLEHHHHHH | not failed
4 | MPKVLNVVFFFSPLIISAVITYFTWVKIETILIDFGLWLAMVTAFYIFLNFYLLLRRSKRYNIEVADEMTGFKIAAFVTSFNEDPEIVERTLLSVKDAVSNQGDVFLLDDSTDENISRRLREFCTRNDINYVHRKDRRGYKAGAINDALRRIQGYDLVAIFDADQRPVRDFFKQVLPYFKDPKIAFVQVPQNYSETFSGISTGAKYQQEPFLRIIMRGRSGRSAFSLGSGTVFRIQALREVGYLPENSITEDAAVSIKLHSKGYNSVYIDVPLIWYGEPPQDLNAYLIQQSRWALGYFQLTKDIIKADLSFLKYYDYFSGFLYWIKEGPLAIVEFISPIVFLLTEIPILRINPILYLLVYLPYLFISIGIFVAGIREETEYGLKGFFYHQCVEFLEFTAVTASFISWLLGRKRPFRVTPKGGGRLNLRILLPHIVILLLLIVSTVKGILWLISANSNFLLYYAIIVNVFWAIYHIPFFLGGILISARFKTRENLTKVVYY | failed
5 | MPLEASELKPTAGPLEASELKPTAGPLEASELKPTAGPLEASELKPTAGPLEASELKPTAGPLEASELKPTAGPLEASELKPTAGMEKTKKIAVMSGKGGVGKTTVAVNLAVALAAEGYQVGLLDLDLHGPNVQRMLGVSLPPSEGEKIVPAKYGDSLKVFSLAMILQEGAPVIWRGPLKHKAIEQLTRDVEWGDLDYLICDLPPGTGDEALSTFQIIKPDAVIVVSTPQKVAGDDVRRAINFVKRLSGKILGLVENMSYLVCPNCGEKIYVFGKGETEKLAEEFGIPLIARIPMDPEVVSLSDEGRPAVVYKRGTVIEEEFKKIVEKVLSLLEHHHHHH | failed
6 | MPLFKFAIDVQYRSNVRDPRGETIERVLREEKGLPVKKLRLGKSIHLEVEAENKEKAYEIVKKACEELLVNPVVEEYEVREL | not failed
7 | MPLIVSSSIMIHAKLIYTFEDAQLDGQIVAALDVNTVANAVYAHNYGSNLVKTRNIQSLSVKEVTKLQANMLLMSPPCQPHTRQGLQRDTEDKRSDALTH | failed
8 | MPLNRNHSELRSGKVNLKNGDPFTIALFGVDSDEKRKQQGGGERSDTIMVLSINPKEKKTELVSIPRDTKAEIAGRGTEEKINHAYAYGGPNMAVKTIEKLMNVPIDHYATIDMDGLHDMIDTLGGVDVVSNSTFTMGANHFVKGEKTHVDGDAAMDFIRSRKEDGAGGDFGRQERQQLILEAMADKMTSASSITHFNTLMNQIQKNVKTDLKLGDLNTIRTKYKDANDQVNRHQLEGEGGIQNDGLYYFIPSDASKNENTQLLRDNLNLLEHHHHHH | not failed
9 | MPLRLPPMLPSVDTSEELDAMVRDEALLRPAAQDLCAHLGLTGARLVRFDDGSLPVYAVGGTLVLKLFPGFEAAEGVREARVLSHLWGQLPVPTPRLHAGEMYKNGWRYVLMSRLPGVSLSTAWSRIPAVEQDRIVDEAAETLAALHSVDWKPLADVVGPADWGTFLRRQRAGVLEHHRAAGLPKPWLDQIPGFLDAVRLPASGERVLLHTEFMREHLTVDPQDGWRLTGLFDFEPAMIGDPAYDFVSVGLFMSRGDPRLLRRFYQAYGRPPHDPYQLLAYTLLHVYSDLAWYLREMPAPPHPRLDALAETWFGTDG | failed
10 | MPLVSVVMPVYNSAATLGAAVRSVLTQTHGDLELLVTDDQSSDGSMDLLREFAAQDERVLPRSSPERGGAGRARNLAIERARGDYVAFLDSDDMWLPEKTEKQLAFAAEGTAPLTFTSYFKMDADHDGESTDWVPNGRVIRAREHVDYRAMLVQDHIGALTAMYDRNVLGTRLMPEMRKRQDYALWLSIMRDGADARGLAEPLAVYRAHQAGSLSSNKLSLVEYNWALYREHENLSVPRATRALAGAVWQSLRNSRILEHHHHHH | failed
